Here are results for 16 sequences from the nanobody polyreactivity screen of Harvey et al. (2022).

The data set in a line: yeast display, Sf9 membrane polyspecificity reagent, FACS + sequencing; frameworks hold sequencing errors. The essentials: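 Nanobodies from a synthetic yeast display library (Saccharomyces cerevisiae BJ5465), induced 36–48 hours with galactose, were stained 1 hour at 4 °C with 10% biotinylated, detergent-solubilized Sf9 membrane reagent, enriched on streptavidin microbeads, then FACS-sorted. Anti-HA (expression) and streptavidin (reagent binding) fluorescence set low and high (top ~1%) gates. Polyreactivity labels come from the gate of origin. Genes were colony-PCR amplified, MiSeq 2 × 250 sequenced and filtered by CDR length.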
As for “QVQLVESGGGLVQAGGSLRLSSAASGRIFSDNVMGWYRQAPGKERELVATITSTGGTYYADSVKGRFTISRDNAKNTVYLQMNSLKPEDTAVYYCNKATLADWWLYPRYNYWGQGTQVTVSS”, the “polyreactivity (PSR sort gate)” value is “low polyreactivity”.
As for “QVQLVESGGGLVQAGGSLRLSCAASGRIFQSNAMGWYRQAPGKEREFVARISKRGGSTYYADSVKGRFTISRDNAKNTVYLQMNSLKPEDTAVYYCAVRRHDRGTMGYWGQGTQVTVSS”, the entry is “low polyreactivity”; as for “QVQIVESGGGLVQAGGSLRLSCAASGSTSVKYAMGWYRQAPGKERELVAAIRKRGDSTYYADSVKGRFTISRDYAKNTVYLQMNSLKPEDTAVYYFAAQYLRGRGYWGQGTQVTLSS”, “low polyreactivity”; as for “QVQLVESGGGLVQAGGSLRLSCAASGFIFFKYAMGWYRQAPGKERELVAGITSGGSTYYADSVKGRFTISRDNAKNTVYLQMNSLKPEDTAVYYCAAYVKRESAPYGYWGQGTQVTVSS”, “low polyreactivity”.
To “QVQLVESGGCLVQAGRSLRLSCAASGSTFYYNAMAWYRQAPGKERELVAAITFTGGSTYADSVKGRFTISRDNAKNTVYFQMNSQKPEDTAVYYCAATIQGHDYLGTGYDYWGQGTQVTVSS” belongs “low polyreactivity”; to “QVQLVESGGGLVQAGGSLRLSCAASGSIFVKNAMGWYRQAPGKEREFVAAITTSGGSTNYADSVKGRFTISLDNAKNTVYLQMNSLKPEDTAVYYCNTDIFPAAYDYWGQGTQVTVSS”, “low polyreactivity”; to “QVQLVESGGGLVQAGGSLRLSCAASGFIFKSYAMGWYRQAPGQERELVAAISRSGSSTYYADSVKGRFTISRDNAKNTVYLLMNSLKPEDTAVYYCAKKGYRFIHFGYDYWGQGTQVTVSS”, “high polyreactivity”.
To “QVQLVESGGGLVQAGGSLRLSCAASGFIFRPNAMGWYRQAPGKERELVAAITGRSGSTNYADSVKGRFTISRDNAKNTVYLQMNSLKPEDTAVYYCAARVWQGYYPGYYYWGQGTQVTVSS” belongs “high polyreactivity”.
Take “QVQLVESRGGLVQAGGSLRLSCAASGRIFYVNAMGGYRQAPGKERELVAAIDVSGGRTYYADSVKGRFTISRDNAKNTVYLQMNSLKPEDTAVYYCAALKYRWTPYYPYDYWGQGTQVTVSS”: the “polyreactivity (PSR sort gate)” value is “low polyreactivity”.
To “QVQLVESGGGLVQAGGSLRLSCAASGRPFSSYAMGWYRQAPGKERELVARINSDGGRTYYADSVKGRFTISRDNAKDTVYLQMNSLKPEDTAVYYCAKRVVRGKVDYWGQGTQVTVSS” belongs “low polyreactivity”.
To “QVQIVESGGGLVQAGGSLRLSCAAYGFTFYPYAMGWYRQAPGKERELVAAITRGGSTYYADSVKGRFTISRDNEKNTVYLQMNSLKPEDTAVYYCNAYWQGYGYDYWGQGTQVTVSS” belongs “low polyreactivity”.
Consider “QVQLVESGGGLVQAGGSLRLSCAASGRILYYYAMGWYRQAPGKERELVAAISGSAGTTYYADSVKGRFTISRDNAKNPVYLQMNSLKPEDTAVYYCSKYYPYIQADYGYDYWGQGTQVSVSS”, for which the “polyreactivity (PSR sort gate)” value is reported as “low polyreactivity”.
To “QVQLVESGGGLVQAGGRLRLSCAASGISFRFNAMGWYRQAPGKEREFVAAITYSGDSTYDADSVMGRFTISRDNAKNTVYLQKNSLKPEDTAVYYCAADYYAIYRRIFYYWGQGTQVTVSS” belongs “low polyreactivity”; to “QDQLVESGGGLVQAGGSLRLSCAASGRIFSVNAMGWYRQAPGKERELVAAISRRGTSTFYADSVKGRFTISRDNAKNTVYLQMNSLKPEDTAVYYCAADFYPYQYKFDYWGQGTQVTVSS”, “high polyreactivity”.
As to “QVQLVQSGGGLVQAGGSLRLSCAASGSTNRYYAMGLYRQAPGKERELVAAITKSGGSTYYADSVKGRFTISRDNAKNTVYLQMNSLKPEDTAVVYCAAVRGWYSPALSEHDYWGQGTQVTVSS”, the “polyreactivity (PSR sort gate)” value is “low polyreactivity”.
For the sequence “QVQLVESGGGLVQAGGSLRLSCAASGLTSYDNTMGWYRQAPGKERELVARIRRTGGGTYYADSVKGRFTISRDNAKNTVYLQMNSMKPEDTAVYYCAATITPYDYDYIWFVYSDHDYWGQGTQVTVSS”, the “polyreactivity (PSR sort gate)” value is listed as “low polyreactivity”.
